Data reported in paper doi:10.1101/180315 (bioRxiv, 2018).
Values belong to the binder of their own block, whether it stands above or below them.

B2: human WIPI4 (natural protein, UniProt Q9Y484 1-360, looked up)
chain: MTQQPLRGVTSLRFNQDQSCFCCAMETGVRIYNVEPLMEKGHLDHEQVGSMGLVEMLHRSNLLALVGGGSSPKFSEISVLIWDDAREGKDSKEKLVLEFTFTKPVLSVRMRHDKIVIVLKNRIYVYSFPDNPRKLFEFDTRDNPKGLCDLCPSLEKQLLVFPGHKCGSLQLVDLASTKPGTSSAPFTINAHQSDIACVSLNQPGTVVASASQKGTLIRLFDTQSKEKLVELRRGTDPATLYCINFSHDSSFLCASSDKGTVHIFALKDTRLNRRSALARVGKVGPMIGQYVDSQWSLASFTVPAESACICAFGRNTSKNVNSVIAICVDGTFHKYVFTPDGNCNREAFDVYLDICDDDDF

Assays:
[1] = molecular target: S. cerevisiae ATG2 (S. cerevisiae, UniProt P53855 1-1592); test: negative-stain EM
[2] = molecular target: human ATG2A (human, UniProt Q2TAZ0 1-1938); test: negative-stain EM
[3] = molecular target: B2; test: SEC

S. cerevisiae ATG2, sequence (P53855 whole entry): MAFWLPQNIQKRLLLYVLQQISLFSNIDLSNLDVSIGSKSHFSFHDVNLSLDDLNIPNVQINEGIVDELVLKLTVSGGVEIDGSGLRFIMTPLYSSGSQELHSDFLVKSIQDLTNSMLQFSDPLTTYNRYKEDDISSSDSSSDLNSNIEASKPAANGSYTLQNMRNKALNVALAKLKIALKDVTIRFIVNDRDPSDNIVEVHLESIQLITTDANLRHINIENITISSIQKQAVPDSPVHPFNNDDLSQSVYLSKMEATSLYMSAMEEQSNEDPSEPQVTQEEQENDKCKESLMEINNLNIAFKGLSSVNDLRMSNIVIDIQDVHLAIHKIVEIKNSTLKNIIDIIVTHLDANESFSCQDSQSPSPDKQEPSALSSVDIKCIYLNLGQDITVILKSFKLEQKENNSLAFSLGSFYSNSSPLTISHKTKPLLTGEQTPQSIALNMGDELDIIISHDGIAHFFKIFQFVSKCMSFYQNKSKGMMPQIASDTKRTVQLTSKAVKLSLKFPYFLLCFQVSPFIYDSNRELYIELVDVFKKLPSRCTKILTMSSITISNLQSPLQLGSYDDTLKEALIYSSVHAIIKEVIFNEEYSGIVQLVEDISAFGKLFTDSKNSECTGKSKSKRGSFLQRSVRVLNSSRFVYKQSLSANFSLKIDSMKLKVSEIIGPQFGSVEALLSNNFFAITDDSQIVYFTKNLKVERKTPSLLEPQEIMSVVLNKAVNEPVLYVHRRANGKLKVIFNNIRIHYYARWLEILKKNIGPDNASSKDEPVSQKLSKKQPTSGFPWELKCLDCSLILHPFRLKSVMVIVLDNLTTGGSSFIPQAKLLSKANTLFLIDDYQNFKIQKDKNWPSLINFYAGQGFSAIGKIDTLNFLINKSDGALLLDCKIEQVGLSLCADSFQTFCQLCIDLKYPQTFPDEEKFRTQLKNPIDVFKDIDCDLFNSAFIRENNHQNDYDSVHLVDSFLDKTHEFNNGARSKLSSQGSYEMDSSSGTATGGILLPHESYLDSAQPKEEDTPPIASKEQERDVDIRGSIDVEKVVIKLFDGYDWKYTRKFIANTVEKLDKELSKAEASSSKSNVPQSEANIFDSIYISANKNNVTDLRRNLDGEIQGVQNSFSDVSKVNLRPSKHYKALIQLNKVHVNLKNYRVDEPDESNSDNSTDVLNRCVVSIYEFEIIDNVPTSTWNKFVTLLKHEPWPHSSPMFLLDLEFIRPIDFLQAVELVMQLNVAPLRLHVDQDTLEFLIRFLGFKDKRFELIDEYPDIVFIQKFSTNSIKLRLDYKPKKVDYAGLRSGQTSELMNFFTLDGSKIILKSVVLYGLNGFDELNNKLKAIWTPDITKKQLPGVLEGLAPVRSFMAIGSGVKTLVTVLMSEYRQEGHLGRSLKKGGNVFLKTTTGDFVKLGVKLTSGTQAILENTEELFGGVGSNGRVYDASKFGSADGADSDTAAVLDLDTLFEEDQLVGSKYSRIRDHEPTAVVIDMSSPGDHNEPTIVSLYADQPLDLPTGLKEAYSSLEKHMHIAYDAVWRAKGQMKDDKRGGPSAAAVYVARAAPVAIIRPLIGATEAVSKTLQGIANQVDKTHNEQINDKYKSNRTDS
human ATG2A, sequence (Q2TAZ0 whole entry): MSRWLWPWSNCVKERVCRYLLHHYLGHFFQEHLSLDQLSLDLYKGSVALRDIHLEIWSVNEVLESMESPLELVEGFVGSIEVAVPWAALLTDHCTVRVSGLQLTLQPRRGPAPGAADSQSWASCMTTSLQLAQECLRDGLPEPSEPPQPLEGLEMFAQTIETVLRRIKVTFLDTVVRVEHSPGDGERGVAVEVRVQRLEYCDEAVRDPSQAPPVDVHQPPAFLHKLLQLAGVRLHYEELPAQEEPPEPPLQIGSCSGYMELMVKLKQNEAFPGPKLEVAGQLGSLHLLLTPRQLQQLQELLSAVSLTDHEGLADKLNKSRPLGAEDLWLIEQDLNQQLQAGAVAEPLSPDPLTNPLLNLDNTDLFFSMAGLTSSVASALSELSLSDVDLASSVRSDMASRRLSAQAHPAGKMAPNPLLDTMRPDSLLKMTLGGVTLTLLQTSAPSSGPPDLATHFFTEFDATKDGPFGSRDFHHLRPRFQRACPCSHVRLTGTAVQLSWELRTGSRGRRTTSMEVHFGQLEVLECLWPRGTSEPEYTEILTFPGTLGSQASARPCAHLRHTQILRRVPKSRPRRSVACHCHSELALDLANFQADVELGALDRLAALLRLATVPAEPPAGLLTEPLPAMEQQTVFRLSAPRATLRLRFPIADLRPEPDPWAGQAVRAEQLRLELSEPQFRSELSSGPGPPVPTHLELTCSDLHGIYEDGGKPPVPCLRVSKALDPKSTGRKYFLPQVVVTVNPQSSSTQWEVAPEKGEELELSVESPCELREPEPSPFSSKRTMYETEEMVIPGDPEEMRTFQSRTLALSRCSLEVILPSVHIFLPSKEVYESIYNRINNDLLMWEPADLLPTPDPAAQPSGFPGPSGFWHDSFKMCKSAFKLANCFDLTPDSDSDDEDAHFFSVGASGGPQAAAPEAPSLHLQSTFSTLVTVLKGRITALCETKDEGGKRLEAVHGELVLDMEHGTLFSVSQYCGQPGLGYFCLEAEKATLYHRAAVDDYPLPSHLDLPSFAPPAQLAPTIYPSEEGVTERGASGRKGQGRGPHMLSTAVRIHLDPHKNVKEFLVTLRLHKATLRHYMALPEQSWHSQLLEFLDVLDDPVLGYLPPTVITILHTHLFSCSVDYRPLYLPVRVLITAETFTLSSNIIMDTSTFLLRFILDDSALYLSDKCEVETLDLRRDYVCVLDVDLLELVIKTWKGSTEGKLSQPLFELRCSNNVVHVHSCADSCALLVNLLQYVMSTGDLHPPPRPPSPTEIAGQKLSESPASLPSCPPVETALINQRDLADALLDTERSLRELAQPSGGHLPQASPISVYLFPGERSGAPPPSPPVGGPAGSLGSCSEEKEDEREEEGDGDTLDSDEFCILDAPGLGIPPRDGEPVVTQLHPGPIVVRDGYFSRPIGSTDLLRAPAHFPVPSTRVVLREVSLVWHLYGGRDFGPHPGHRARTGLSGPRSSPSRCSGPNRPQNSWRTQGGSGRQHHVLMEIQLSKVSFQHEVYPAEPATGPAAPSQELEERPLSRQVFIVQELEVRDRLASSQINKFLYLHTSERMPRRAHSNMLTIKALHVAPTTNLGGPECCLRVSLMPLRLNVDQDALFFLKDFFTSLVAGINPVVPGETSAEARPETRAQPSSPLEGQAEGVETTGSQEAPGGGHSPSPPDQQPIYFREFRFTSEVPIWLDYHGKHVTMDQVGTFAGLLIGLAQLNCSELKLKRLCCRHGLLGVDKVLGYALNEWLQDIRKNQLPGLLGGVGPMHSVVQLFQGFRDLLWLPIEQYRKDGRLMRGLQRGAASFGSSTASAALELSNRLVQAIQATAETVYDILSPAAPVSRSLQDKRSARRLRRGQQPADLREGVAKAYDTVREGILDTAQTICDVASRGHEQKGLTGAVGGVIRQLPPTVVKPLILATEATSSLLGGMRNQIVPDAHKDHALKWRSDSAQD

- binding result [1]: binds
B1: ATG18 (natural protein, S. cerevisiae, UniProt P43601 1-500, looked up)
chain: MSDSSPTINFINFNQTGTCISLGTSKGFKIFNCEPFGKFYSEDSGGYAIVEMLFSTSLLALVGIGDQPALSPRRLRIINTKKHSIICEVTFPTSILSVKMNKSRLVVLLQEQIYIYDINTMRLLHTIETNPNPRGLMAMSPSVANSYLVYPSPPKVINSEIKAHATTNNITLSVGGNTETSFKRDQQDAGHSDISDLDQYSSFTKRDDADPTSSNGGNSSIIKNGDVIVFNLETLQPTMVIEAHKGEIAAMAISFDGTLMATASDKGTIIRVFDIETGDKIYQFRRGTYATRIYSISFSEDSQYLAVTGSSKTVHIFKLGHSMSNNKLDSDDSNMEEAAADDSSLDTTSIDALSDEENPTRLAREPYVDASRKTMGRMIRYSSQKLSRRAARTLGQIFPIKVTSLLESSRHFASLKLPVETNSHVMTISSIGSPIDIDTSEYPELFETGNSASTESYHEPVMKMVPIRVVSSDGYLYNFVMDPERGGDCLILSQYSILMD

Binder: B2
- stoichiometry N [2]: 1

- binding result [3]: binds
B3: 6xHis-GB1-ATG2A (1358-1404) (domain or fragment, human, UniProt Q2TAZ0 1358-1404, looked up)
chain: DSDEFCILDAPGLGIPPRDGEPVVTQLHPGPIVVRDGYFSRPIGSTD
